Measurements published in patent US20030176665A1.
Where two headings read alike, the source gives them in different places.

Tests used:
gp41 (535-681)-His6 [1] = tested on: gp41 (535-681)-His6
gp41 (535-681)-His6 [2] = target: gp41 (535-681)-His6; remark: listed apart in the source

C-terminally truncated SlyD from E. coli
aggregation of gp41 after shift to neutral pH (UV spectra) (gp41 (535-681)-His6 [1]): Comparable data have been obtained with ... a C-terminally truncated SlyD from E. coli

B1: trigger factor from Thermatoga maritima (protein)
chain: MEVKELERDKNRVVLEYVFGAEEIAQAEDKAVRYLNQRVEIPGFRKGRIPKNVLKMKLGEEFQEYTLDFLMDLIPDTLKDRKLILSPIVTERELKDVTARVVVEVHEEPEVRIGDISKIEVEKVDEEKVLEKYVERRIEDLRESHALLEPKEGPAEAGDLVRVNMEVYNEEGKKLTSREYEYVISEDEDRPFVKDLVGKKKGDVVEIEREYEGKKYTYKLEVEEVYKRTLPEIGDELAKSVNNEFETLEQLKESLKKEGKEIYDVEMKESMREQLLEKLPEIVEIEISDRTLEILVNEAINRLKREGRYEQIVSSYESEEKFREELKERILDDIKRDRVIEVLAQEKGISVNDEELEKEAEELAPFWGISPDRAKSLVKARQDLREELRWAILKRKVLDLLLQEVKVKVVEPKGEGDDSEGKEDN
aggregation of gp41 after shift to neutral pH (UV spectra) (gp41 (535-681)-His6 [2]): Comparable data have been obtained with trigger factor from Thermatoga maritima

B2: FkpA from E. coli (mature FkpA) (protein)
chain: AEAAKPATAADSKAAFKNDDQKSAYALGASLGRYMENSLKEQEKLGIKLDKDQLIAGVQDAFADKSKLSDQEIEQTLQAFEARVKSSAQAKMEKDAADNEAKGKEYREKFAKEKGVKTSSTGLVYQVVEAGKGEAPKDSDTVVVNYKGTLIDGKEFDNSYTRGEPLSFRLDGVIPGWTEGLKNIKKGGKIKLVIPPELAYGKAGVPGIPPNSTLVFDVELLDVKPAPKADAKPEADAKAADSAKK
aggregation of gp41 after shift from about pH 3.5 to pH 7.4 (UV spectra after 1 and 10 minutes; 1 µM gp41 with 2 µM or 4 µM FkpA) (gp41 (535-681)-His6 [2]): FkpA substantially reduces the aggregation of gp41 in a dose-dependent fashion
suppression of aggregation (stray light in UV spectra) by a two-fold and a four-fold molar excess of the chaperone (gp41 (535-681)-His6 [2]): there is compelling spectroscopic evidence that FkpA efficiently solubilizes the gp41 ectodomain in a dose-dependent fashion
